# B1: NS1 of A/Brevig Mission/1/1918 (H1N1) influenza A virus, His tagged recombinant (natural protein)
# chain: MDSNTVSSFQVDCFLWHVRKRFADQELGDAPFLDRLRRDQKSLRGRGSTLGLDIETATRAGKQIVERILKEESDEALKMTIASVPASRYLTDMTLEEMSRDWFMLMPKQKVAGSLCIRMDQAIMDKNIILKANFSVIFDRLETLILLRAFTEEGAIVGEISPLPSLPGHTDEDVKNAVGVLIGGLEWNDNTVRVSETLQRFAWRSSNENGRPPLPPKQKRKMARTIKSEV
# Target: PSD95, His tagged recombinant (UniProt P78352 1-724)
# Experiment: BLI
# Chain of PSD95, His tagged recombinant (P78352 whole entry): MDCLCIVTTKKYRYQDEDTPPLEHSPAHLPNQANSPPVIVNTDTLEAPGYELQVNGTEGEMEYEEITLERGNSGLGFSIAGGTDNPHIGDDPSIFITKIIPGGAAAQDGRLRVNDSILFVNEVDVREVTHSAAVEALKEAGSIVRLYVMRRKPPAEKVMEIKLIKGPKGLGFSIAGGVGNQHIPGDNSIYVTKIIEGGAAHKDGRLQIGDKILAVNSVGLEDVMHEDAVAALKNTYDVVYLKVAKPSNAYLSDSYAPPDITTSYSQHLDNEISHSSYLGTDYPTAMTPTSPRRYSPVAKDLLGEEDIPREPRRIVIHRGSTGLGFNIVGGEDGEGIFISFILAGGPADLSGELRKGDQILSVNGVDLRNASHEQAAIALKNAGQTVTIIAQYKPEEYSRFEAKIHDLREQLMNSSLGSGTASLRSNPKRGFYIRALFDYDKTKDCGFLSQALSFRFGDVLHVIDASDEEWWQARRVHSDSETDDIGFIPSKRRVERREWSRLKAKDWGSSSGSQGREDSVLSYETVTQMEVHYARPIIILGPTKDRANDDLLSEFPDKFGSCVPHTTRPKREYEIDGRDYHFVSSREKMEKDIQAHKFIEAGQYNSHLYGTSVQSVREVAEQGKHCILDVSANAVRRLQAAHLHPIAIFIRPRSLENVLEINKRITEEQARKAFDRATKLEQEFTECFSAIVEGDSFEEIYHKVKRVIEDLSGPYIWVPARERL
binder,measurement,value
B1,Kd,1600 nM

# From article PMC10754036 (Nature structural & molecular biology, 2018)
